± gives the uncertainty stated by the source.
B1: Membrane-associated guanylate kinase, WW and PDZ domain-containing protein 2, residues 601 to 682; numbered along this chain, Q86UL8 (parent)
chain: AELMTLTIVKGAQGFGFTIADSPTGQRVKQILDIQGCPGLCEGDLIVEINQQNVQNLSHTEVVDILKDCPIGSETSLIIHRG

Variants of: B1
Test: abundance fitness (aPCA) (normalised: wild type 0, dead -1); higher = more abundant; growth selection in yeast, the domain comes from the species named
Details: Homo sapiens

Variant	abundance fitness
L45A	-0.088 ± 0.43
L45G	-0.096 ± 0.34
L45M	0.089 ± 0.17
L45R	-0.244 ± 0.32
L45V	-0.232 ± 0.12
L45W	-0.161 ± 0.15
L45S	0.256 ± 0.26
S58K	-0.236 ± 0.17
S58P	-0.174 ± 0.088
S58Q	-0.057 ± 0.092
S58V	-0.093 ± 0.079
S58Y	-0.226 ± 0.26
S58T	-0.135 ± 0.095
S58E	-0.065 ± 0.092
S58G	0.015 ± 0.1
S58N	-0.007 ± 0.23
S58W	-0.021 ± 0.12
S58D	-0.183 ± 0.17
S58R	-0.119 ± 0.075
S58C	0.052 ± 0.11
S58F	-0.29 ± 0.16
L57T	-0.128 ± 0.14
L57V	-0.029 ± 0.067
L57H	-0.008 ± 0.14

Variant	abundance fitness
L57N	0.076 ± 0.16
L57G	-0.152 ± 0.065
L57W	-0.13 ± 0.11
L57D	-0.109 ± 0.19
L57C	-0.046 ± 0.15
L57K	-0.108 ± 0.15
L57E	-0.038 ± 0.079
L57M	-0.283 ± 0.14
L57S	0.028 ± 0.06
L57Q	-0.081 ± 0.13
Q51K	-0.024 ± 0.042
Q51I	-0.269 ± 0.048
Q51N	0.045 ± 0.044
Q51A	-0.012 ± 0.043
Q51V	-0.088 ± 0.042
Q51D	-0.024 ± 0.05
Q51W	-0.09 ± 0.055
Q51F	-0.063 ± 0.041
Q51S	-0.018 ± 0.038
Q51T	0.005 ± 0.039
Q51P	-0.749 ± 0.07
Q51M	-0.042 ± 0.047
Q51H	-0.016 ± 0.041
Q51C	-0.067 ± 0.059

Variant	abundance fitness
Q51L	-0.064 ± 0.029
Q51E	-0.013 ± 0.063
D44L	-1.27 ± 0.3
D44G	-0.859 ± 0.11
D44N	-0.21 ± 0.1
D44E	-0.874 ± 0.22
D44M	-0.572 ± 0.24
D44T	-0.95 ± 0.26
D44C	-0.989 ± 0.28
D44H	-0.79 ± 0.31
D44Y	-0.71 ± 0.2
D44A	-0.263 ± 0.11
D44Q	-0.567 ± 0.16
D44S	-0.618 ± 0.12
N56A	-0.076 ± 0.071
N56S	-0.053 ± 0.1
N56F	-0.099 ± 0.25
N56V	-0.128 ± 0.094
N56G	0.003 ± 0.079
N56K	-0.046 ± 0.095
N56C	-0.326 ± 0.22
N56Q	-0.099 ± 0.12
N56P	0.072 ± 0.1
N56L	-0.051 ± 0.069

Variant	abundance fitness
N56T	-0.03 ± 0.11
N56Y	0.074 ± 0.42
N56W	0.197 ± 0.28
N56E	0.221 ± 0.23
N56R	-0.036 ± 0.052
N56M	-0.06 ± 0.11
V54T	-0.037 ± 0.035
V54Y	-1 ± 0.12
V54I	-0.07 ± 0.04
V54G	-0.523 ± 0.049
V54R	-0.939 ± 0.082
V54H	-1.18 ± 0.15
V54C	-0.086 ± 0.052
V54F	-0.867 ± 0.082
V54E	-0.906 ± 0.16
V54Q	-0.688 ± 0.064
V54K	-0.855 ± 0.1
V54W	-0.779 ± 0.11
V54P	-0.806 ± 0.064
V54S	-0.243 ± 0.034
V54L	-0.089 ± 0.029
V54A	-0.053 ± 0.04
V54D	-0.964 ± 0.14
G43F	-0.275 ± 0.17

Variant	abundance fitness
G43R	-0.182 ± 0.079
G43V	-0.761 ± 0.24
G43Q	0.068 ± 0.14
G43S	-0.104 ± 0.087
G43T	-0.121 ± 0.12
G43H	0.004 ± 0.39
G43W	-0.206 ± 0.099
G43E	0.059 ± 0.2
G43K	0.199 ± 0.36
G43M	-0.261 ± 0.17
G43D	0.023 ± 0.21
G43L	0 ± 0.11
T60W	-0.075 ± 0.12
T60Y	-0.165 ± 0.2
T60P	-0.198 ± 0.15
T60N	0.054 ± 0.11
T60L	-0.011 ± 0.071
T60C	0.17 ± 0.15
T60A	0.146 ± 0.081
T60E	-0.051 ± 0.11
T60M	0.012 ± 0.11
T60R	-0.038 ± 0.065
T60S	-0.032 ± 0.093
T60D	-0.136 ± 0.12

Variant	abundance fitness
T60K	-0.003 ± 0.15
T60V	0.004 ± 0.086
V47I	-0.165 ± 0.11
V47K	-0.195 ± 0.16
V47W	-0.09 ± 0.11
V47S	-0.09 ± 0.069
V47Y	-0.337 ± 0.18
V47C	-0.066 ± 0.09
V47F	0.185 ± 0.38
V47A	0.036 ± 0.082
V47R	-0.018 ± 0.073
V47D	-0.161 ± 0.33
V47G	-0.164 ± 0.063
V47Q	0.033 ± 0.26
V47N	-0.291 ± 0.39
V47E	0.004 ± 0.12
H59N	-0.009 ± 0.27
H59P	-0.094 ± 0.083
H59A	-0.088 ± 0.077
H59I	-0.142 ± 0.16
H59M	0.065 ± 0.1
H59S	-0.038 ± 0.083
H59R	-0.009 ± 0.057
H59G	-0.018 ± 0.068

Variant	abundance fitness
H59E	0.126 ± 0.15
H59K	-0.132 ± 0.092
H59D	-0.176 ± 0.093
H59T	-0.132 ± 0.1
H59W	-0.074 ± 0.1
H59L	-0.01 ± 0.065
H59Q	-0.014 ± 0.1
H59Y	-0.109 ± 0.11
I46V	-0.079 ± 0.18
I46M	0.164 ± 0.14
I46L	0.236 ± 0.32
I46T	-0.587 ± 0.27
V63M	0.041 ± 0.11
V63F	-0.432 ± 0.38
V63A	0.001 ± 0.067
V63Q	-0.087 ± 0.23
V63G	-0.067 ± 0.074
V63L	-0.278 ± 0.2
V63S	-0.099 ± 0.13
V63W	-0.017 ± 0.11
V63H	-0.493 ± 0.21
V63C	-0.192 ± 0.15
V63D	0.145 ± 0.41
V63E	-0.028 ± 0.12

Variant	abundance fitness
V63R	-0.072 ± 0.068
V63K	-0.095 ± 0.21
N50W	-0.433 ± 0.15
N50L	-0.219 ± 0.1
N50F	-0.71 ± 0.48
N50S	-0.03 ± 0.068
N50M	-0.108 ± 0.1
N50G	-0.058 ± 0.064
N50C	-0.71 ± 0.43
N50H	0.024 ± 0.13
N50D	-0.084 ± 0.23
N50T	-0.455 ± 0.15
N50R	-0.068 ± 0.057
N50V	-0.626 ± 0.17
N50K	-0.011 ± 0.12
N50Y	-0.386 ± 0.27
N50E	0.013 ± 0.16
I49S	-0.97 ± 0.49
I49W	-0.241 ± 0.093
I49Y	-0.14 ± 0.28
I49F	-0.065 ± 0.24
I49T	-0.371 ± 0.34
I49M	-0.195 ± 0.13
I49H	-0.964 ± 0.23

Variant	abundance fitness
I49V	0.072 ± 0.082
I49R	-0.875 ± 0.17
I49P	-1.01 ± 0.36
I49C	-0.094 ± 0.11
I49L	0.011 ± 0.087
I49A	-0.173 ± 0.078
I49G	-1.08 ± 0.31
N53I	-0.076 ± 0.04
N53W	-0.201 ± 0.049
N53P	-0.001 ± 0.034
N53A	-0.097 ± 0.034
N53T	-0.042 ± 0.035
N53H	-0.045 ± 0.036
N53D	-0.025 ± 0.043
N53L	-0.069 ± 0.03
N53R	-0.061 ± 0.033
N53S	-0.022 ± 0.033
N53E	-0.043 ± 0.047
N53M	-0.043 ± 0.05
N53K	-0.021 ± 0.042
N53G	-0.051 ± 0.037
N53Y	-0.064 ± 0.038
N53Q	-0.025 ± 0.042
N53F	-0.095 ± 0.038

Variant	abundance fitness
D64I	-0.183 ± 0.18
D64C	-0.238 ± 0.18
D64V	-0.06 ± 0.063
D64M	-0.308 ± 0.14
D64Q	-0.057 ± 0.11
D64P	-0.202 ± 0.2
D64W	-0.047 ± 0.1
D64H	0.195 ± 0.3
D64T	-0.126 ± 0.12
D64A	-0.191 ± 0.09
D64Y	0.08 ± 0.19
D64G	-0.059 ± 0.071
D64K	0.011 ± 0.16
D64L	-0.128 ± 0.087
D64S	0.013 ± 0.085
D64F	-0.112 ± 0.2
D64N	-0.067 ± 0.3
E61R	0.002 ± 0.1
E61G	-0.036 ± 0.065
E61H	-0.051 ± 0.15
E61V	-0.132 ± 0.089
E61T	-0.289 ± 0.14
E61D	-0.005 ± 0.37
E61W	-0.374 ± 0.21

Variant	abundance fitness
E61L	-0.046 ± 0.071
E61A	-0.151 ± 0.094
E61I	-0.409 ± 0.32
E61F	-0.381 ± 0.39
E61K	-0.137 ± 0.17
E61C	-0.039 ± 0.11
E61S	-0.2 ± 0.12
E61M	0.08 ± 0.28
Q55K	-0.276 ± 0.18
Q55E	-0.029 ± 0.065
Q55F	0.043 ± 0.45
Q55C	-0.111 ± 0.14
Q55I	-0.02 ± 0.12
Q55S	-0.172 ± 0.097
Q55D	-0.111 ± 0.16
Q55G	0.073 ± 0.059
Q55M	-0.01 ± 0.16
Q55N	0.039 ± 0.32
Q55V	-0.027 ± 0.09
Q55A	-0.069 ± 0.095
Q55L	-0.106 ± 0.072
Q55W	-0.133 ± 0.082
Q55R	0.004 ± 0.052
L66F	0.053 ± 0.18

Variant	abundance fitness
L66A	-0.571 ± 0.12
L66C	-0.398 ± 0.15
L66R	-1.11 ± 0.24
L66E	-0.522 ± 0.33
L66S	-0.63 ± 0.2
L66G	-0.673 ± 0.28
L66Q	-0.557 ± 0.31
Q52D	0.027 ± 0.061
Q52M	0.01 ± 0.045
Q52E	-0.016 ± 0.069
Q52K	0.049 ± 0.048
Q52N	0.017 ± 0.046
Q52Y	-0.024 ± 0.05
Q52I	0.038 ± 0.051
Q52W	-0.095 ± 0.049
Q52C	-0.052 ± 0.066
Q52L	-0.072 ± 0.03
Q52T	-0.018 ± 0.038
Q52R	-0.007 ± 0.037
Q52V	-0.039 ± 0.039
Q52F	-0.054 ± 0.045
Q52S	-0.037 ± 0.037
Q52A	-0.037 ± 0.044
Q52H	-0.029 ± 0.043

Variant	abundance fitness
V62E	-0.999 ± 0.49
V62G	-1.07 ± 0.17
V62H	-0.598 ± 0.35
V62F	-0.345 ± 0.31
V62L	-0.114 ± 0.087
V62D	-0.985 ± 0.35
V62A	-0.079 ± 0.089
V62C	0.181 ± 0.29
V62Q	-0.336 ± 0.13
V62T	-0.03 ± 0.13
V62R	-0.91 ± 0.14
V62W	-1.03 ± 0.4
V62M	-0.181 ± 0.12
E48S	-0.004 ± 0.089
E48W	-0.158 ± 0.12
E48Q	-0.098 ± 0.17
E48R	-0.103 ± 0.056
E48A	-0.193 ± 0.094
E48I	-0.871 ± 0.47
E48Y	0.006 ± 0.26
E48C	-0.145 ± 0.1
E48V	-0.086 ± 0.087
E48L	-0.114 ± 0.079
E48D	-0.444 ± 0.23

Variant	abundance fitness
E48K	-0.117 ± 0.11
E48T	-0.226 ± 0.18
E48H	0.091 ± 0.43
E48M	-0.144 ± 0.2
I65Q	-0.079 ± 0.047
I65P	-1.32 ± 0.22
I65C	-0.053 ± 0.063
I65A	-0.048 ± 0.037
I65E	-0.146 ± 0.052
I65V	0.006 ± 0.037
I65R	-0.064 ± 0.034
I65S	-0.059 ± 0.04
I65T	-0.038 ± 0.048
I65G	-0.295 ± 0.038
I65H	-0.242 ± 0.093
I65M	-0.051 ± 0.05
I65N	-0.256 ± 0.087
I65F	-0.088 ± 0.074
I65L	-0.072 ± 0.037
I65D	-0.542 ± 0.13
I65K	-0.069 ± 0.057
I65Y	-0.047 ± 0.063
